The values that follow come from doi:10.1101/750265.

In the assay the target is dominant negative RACB-T20N, split-YFP fusion for BiFC (barley (Hordeum vulgare)). Kind of assay: split reporter.

“RIPb, full length, split-YFP fusion for BiFC (natural protein)” displayed a BiFC signal relative to that with CA RACB of under 10%.
